In the emibetuzumab library of Makowski et al. (2022):

B1: VH:VL chains; a variant is named by its letters at X, in order (parent)
chain 1: QVQLVQSGAEVKKPGASVKVSCKASGYTFTDYXMHWVRQAPGQGLEWMGXVNPNXXXTTYNQKFEGRVTMTTDTSTSTAYMELRSLRSDDTAVYYCARXNXLDXWGQGTTVTVSS
chain 2: DIQMTQSPSSLSASVGDRVTITCSVSSSVSSIYLHWYQQKPGKAPKLLIYSTSNLASGVPSRFSGSGSGTDFTLTISSLQPEDFATYYCQVYSGYPLTFGGGTKVEIK

Variants of: B1
Experiment: yeast display scFab, FACS + sequencing
How it was run: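 Heavy-chain CDR mutant scFab yeast surface library, FACS-sorted after labelling with biotinylated ovalbumin (260 μg/mL in PBSB, 3 h, room temperature) or soluble membrane proteins (130 μg/mL, 20 min on ice), plus anti-Myc. Gates collected the top 25% and bottom 10% of binders, and samples from two replicates were deep sequenced. Non-specific binding call: a sequence was positive if found in ≥3 of 4 positive samples (membrane protein and ovalbumin pooled) and no negatives, and negative by the converse rule.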

Row | Variant | non-specific binding call
1 | DAGTGSGA | no binding
2 | VAGTGSLD | no binding
3 | VAGTGSSA | no binding
4 | VAGTGSSD | no binding
5 | VAGTGSSV | no binding
6 | FAGTGSWD | no binding
7 | DAGTGSWD | no binding
8 | SAGTGSWD | no binding
9 | YAGTGVVD | binds
10 | VAGTSDGA | no binding
11 | FAGTSVGS | binds
12 | VAKADALD | no binding
13 | VAKADDWF | no binding
14 | YAKADSGA | binds
15 | YAKADYSS | binds
16 | FAKAGFVA | binds
17 | DAKEGAAA | no binding
18 | DAKEGAGD | no binding
19 | AAKEGALV | no binding
20 | VAKEGAWV | binds
21 | DAKEGDAD | no binding
22 | DAKEGDAV | no binding
23 | FAKEGDGD | no binding

Row | Variant | non-specific binding call
24 | DAKEGDGV | no binding
25 | YAKEGDGV | no binding
26 | DAKEGDLV | no binding
27 | DAKEGDVV | no binding
28 | FAKEGFWD | binds
29 | DAKEGSLD | no binding
30 | DAKEGSSA | no binding
31 | DAKENAGD | no binding
32 | VAKENAVA | no binding
33 | DAKENAVY | no binding
34 | DAKENDVA | no binding
35 | DAKENDVF | no binding
36 | YAKGDDAS | no binding
37 | YAKGDYSV | no binding
38 | VAKKNASF | no binding
39 | DAKKNASF | no binding
40 | YAKRDAGD | no binding
41 | YAKRDALA | no binding
42 | VAKRDSAS | no binding
43 | DAKRDSAS | no binding
44 | SAKRDSAS | no binding
45 | FAKRGAWS | binds
46 | YAKRGSWA | binds

Row | Variant | non-specific binding call
47 | AAKRGSWV | no binding
48 | FAKTDAGF chain 1 G108D | binds
49 | DAKTDDGV | no binding
50 | FARAAALD | binds
51 | VARAADAD | no binding
52 | YARADAAA | no binding
53 | AARADAGA | no binding
54 | AARADAVA | no binding
55 | AARADAVV | no binding
56 | AARADAVY | no binding
57 | AARADDAA | no binding
58 | YARADDAS | no binding
59 | AARADDAV | no binding
60 | YARADDGD | no binding
61 | AARADDGS | no binding
62 | YARADDGS | no binding
63 | AARADDGV | no binding
64 | YARADDSA | no binding
65 | AARADDSA | no binding
66 | AARADDSV | no binding
67 | AARADDVA | no binding
68 | YARADDVA | no binding
69 | AARADDVD | no binding

Row | Variant | non-specific binding call
70 | YARADDVF | no binding
71 | AARADDVY | no binding
72 | AARADDWD | no binding
73 | AARADDWV | no binding
74 | AARADFGV | no binding
75 | AARADSAD | no binding
76 | AARADSGD | no binding
77 | YARADSGD | no binding
78 | VARADSGV | no binding
79 | SARADSGV | no binding
80 | DARADSGV | no binding
81 | AARADSGY | no binding
82 | YARADSLD | no binding
83 | AARADSLS | no binding
84 | DARADSLV | no binding
85 | AARADSSA | no binding
86 | YARADSSD | no binding
87 | YARADSSV | no binding
88 | AARADSWV | no binding
89 | FARAGDWV | binds
90 | YARAGSVS | binds
91 | YARAGYAV | binds
92 | YAREAALS | binds

Row | Variant | non-specific binding call
93 | YAREDDGA | no binding
94 | VAREDDLS | no binding
95 | VAREDDWA | no binding
96 | SAREGALD | no binding
97 | SAREGDAV | no binding
98 | SAREGDLA | no binding
99 | VAREGDLA | no binding
100 | SAREGDWV | no binding
101 | YAREGSGA | binds
102 | SAREGSSA | no binding
103 | SAREGYSV | binds
104 | DARENAGY | no binding
105 | FARENFLA chain 1 V51A | binds
106 | YARETAGV | binds
107 | YARETDGA | no binding
108 | VARETDVA | no binding
109 | YARETDVV | no binding
110 | FARETFGV | binds
111 | DARETFLD | no binding
112 | AARETVGA | binds
113 | YARGADGS | no binding
